Reference: the DeepSol protein solubility set

Experiment: soluble on expression in E. coli; label from the status in PepcDB or PDB records

Sequence	soluble on expression in E. coli
ISFVIAAPEAIAAAATDLASIGSTIGAANAAAAANTTAVLAAGADQVSVAIAAAFGAHGQAYQALSAQAATFHIQFVQALTAGAGSYAAAEAASAASITSPLLDAINAPFLAALGRPLIGNGADGAPGTGAAGGAGGLLFGNGGAGGSGAPGGAGGLLFGNGGAGGPGASGGALG	not soluble
SLLSETSTALGLQELSNITMPVIFNEPLSFLQRLTEYMEHTYLIHKASSLSDPVERMQCVAAFAVSAVASQWERTGKPFNPLLGETYELVRDDLGFRLISEQVSHHPPISAFHAEGLNNDFIFHGSIYPKLKFWGKSVEAEPKGTITLELLDHNEAYTWTNPTCCVHNIIVGKLWIEQYGNVEIINHKTGDKCVLNFKPCGLFGKELHKVEGYIQDKSKKKLCALYGKWTECLYSVDPATFDAYKKNDKKNTEEKKNSKQTSSSEESDEMPVPDSESVFIIPGSVLLWRIAPRPPNSAQMYNFTSFAMVLNEVDKEMESVIPKTDCRLRPDIRAMENGEIDLASEEKKRLEEKQRAARKNRSKSEEDWKTRWFHQGPNPYSGAQDWIYSGSYWDRNYFNLPDIY	soluble
MSLQAANLRQSRSMTLGLIVTEIINPYFAELAMAVDQIAHDAGYTIFIGYSRDHADRQHEIISSMIERQVDGILLLPAPDTDPEKLAKQVNAAGVPVVLLARRFAGFDYVGSENVKGATILGDHLSALGCRSVAFLGGLTASSLAEREEGLRASLEPRGCDVWSVDEFRSPITPEGGVAAVGRLFDQGKLPDAIIAYNDAVAQGIYDEMRRRGLEPGRDLAVASFDDTRIAASQVPPMTSVAGFPQEIGAKGAEMLMTRLADGNEDIPTQLTLIQPQLKIRSSTATWRREGHHHHHH	soluble
MTTAHFYCQYCTASLLGKKYVLKDDSPYCVTCYDRVFSNYCEECKKPIESDSKDLCYKDRHWHEGCFKCTKCNHSLVEKPFAAKDERLLCTECYSNECSSKCFHCKRTIMPGSRKMEFKGNYWHETCFVCENCRQPIGTKPLISKESGNYCVPCFEKEFAHYCNFCKKVITSGGITFCDQLWHKECFLCSDCRKDLCEEQFMSRDDYPFCMDCYNHLYANKCVACSKPISGLTGAKFICFQDSQWHSECFNCGKCSVSLVGKGFLTQNKEIFCQKCGSGMDTDI	soluble
VRGLPRAKKLEKLGVFSACKANGTCKCNGWKNPKPPTAPRIDLQQPAANLSELCRSCEHPLADHVSHLENVSEDEINRLLGMVVDVENLFMSVHKEEDTDTKQVYFYLFKLLRKCILQMTRPVVEGSLGSPPFEKPNIEQGVLNFVQYKFSHLAPRERQTMFELSKMFLLCLNYWELETPAQFRQRSQAEDVATYKVNYTRWLCYCHVPQSCDSLPRYETTHVFGRS	soluble
MGSDKIHHHHHHMLLKNASFYDDEVLKRADIRLKDSLITEIKENLSPINNEEVIECRDLFVLPSFIDLSVTGLEGYENLKQKAFKGGVGLLNVFNCDQSGIKNIMAIKNNQLADIATLKNKGGEILIAPSDAFLELISHYAKSYNLPLLISLENSFEALNSGELAYELGQNFVENAFENTRLVRFMEVSRALQIPVLLDKVNSITTLKLIKAFNDLGAKLQAQTPLSHLVLDESVYEDYEPRFKIAPPLRDKESQNALKEALKNNEIAMLTSLHASKNSNAQLFEESAFGCESIEDAFSVAYTFLVQKKVISFQQLIKVMAINQAKFLKLNAGEVKENQLANLMIVDLNAQTRVSNQNSPFYGLELYGEVQRMILKGQTTFIKENACKKS	not soluble
GPGSMLRRLGSTLFCSVTLANGTVLKGDLNPHNPSLLLKGITILPDGRVYSGSYDATSGFPLPGSQLEEDGDLYRGDFNTQWQREGRGEAWLADGTHYAGVFKNDEITEGIVRIPNGTTEVVFEGTLSDEAFVKGKLTQSDFVYEGEFSDNEPHGKGKLVFATGAVQEGTFFHGKLHGPDCKMKLDGGFVYVGEFLDGQIRRGTLYTPTYTYEGEFNEHGRAQGEGTQTYLINEPRLTFTGIWTNGALVRGVCMDEYGSAVDWQNNDELQAKVLGGATGKGSESVGLNSYCSARMKEAAQLHSDMQRSYAEDAEAVAQSTGRFPTKMDLGYEGSIAHENEAVMQAQQRQMQDIERSKEVLSDRARDFGPIASGSRGNIIGEIDENMARIQFRRQVGAEEVSAARVDEQFERFMKSFKKPSPLPGAPAQVAQKLNIDGNAPWKAFTPLK	soluble
MPTPEDVPMDENDAGRVAEGSQDESKTPSREVLKKLLNEVEMAEMEENEMWYLISQKWWNSLIKAVRDGFVDDVGPIDNSQISECRNGSFFLKQRLAEQVDYTPVPEILFKRLERFYHIDDDRRDYIQRRVVRKDGKLCIEVYPRIVHITSARNRDIKADLVLRPDDTMVSLRERVIGELSLSTTDNIRFYVMNGENYELIDTAQSIDSYFDTVQKVVVDVEEDGEFFIKGKSATPKSLFGTQSSSSHGGNGISNSYNSPSPSTGVVTRTTPGACGLSNLGNTCFMASAFQCLSNMPPLREYFLANTYQNDINEDNPLGTHGHLAMAVGELMKGMWSGDYASINPRKFKSIIGQFAPRFNGYSQQDAHELMAYVLDGLHEDLNRIKKKPYIEDSDEDAKLPEAEYAAKSWEVYKMRNDSIIVDTLHGQLKSTLICPVCEKISIKFDPFGYLSLPLPPKEQIVKQTVIVMFLTRKWAKFSLGITDTTTVEEAERLMLDKLQPEQQHHFVFFHVPSQYHDDITMMRPGDRVRMPGREVYVAEVEHDLQVKGTRLFVAYNRIKLVRSASLPMIYSLPTGYPLTRGFLNDHVFSTTKHFFINPKAVAELGGGNSNDDDSMSGSNSADEREPYKLFVGPPGSTASLPIPPTDDPIPFPDENSHDIYSNFLQIVFQWKDLKIFNQYKGNELIEREMTVSTRRKVLLQETLDWFTTKEQLGEQDSWYCPQCKKHERATKQLALWKLPEILILHLKRFQYTKWSREKLTWEVVIPVRGLDLTDKVANPNHEKAIYDLIAVSRHYGSLSGGHYTAIGYNDREQKWFDFNDSSANPTYPPAEPYESSDPYILVYRRRKLDSNGKPIEPSAVSESLHSRPKRGAAPTISSATSSASSSRHQVDENMEMEED	not soluble
FLEVNYYSRVLGMNRVMNVLLPEESDHNPNWTNDSLKDLPVLYLLHGMSGNHFDWQRKSDIERLLRQTKLAVIMPAADLAWYTNTDYGMNYFDAISQELPRKVASLFPQISTKRKKHFVAGMSMGGYGAFKLAFSSSYFSYAASLSGTLISSLNYPGFLDMEKQAYWKGIFGDLDKFSGSKNDIFELAKRQSNTGIELPKLYAWVGQQDFFYGANEKAIPRLRKMGYDVSYETNPGDHEWYYWSKYIENILQWLPINYQAEKRLS	not soluble
MQIAREETRKSGANILYVINHQRPSIFGSSMHQIGGLMLLSDSVVRNEGEGYPDSLLYDSGQRGKIGSRIKAPVHDLSFHFGPSTITNRTKGLSYSEQQLEKKLSNGLSFVLQYKCHPKGNLYGFGLIASRYEADITKKIEYQGIGFANRLDYIAPLFSMSTALSERWFLGMSFGKDGSQSVRLHYRFARLPVDRDLSAVGCVRKKSPHTDDCRLTVSPLYRPS	not soluble
SLVCKNALQDLSFLEHLLQVKYAPKTWKEQYLGWDLVQSSVSAQQKLRTQENPSTSFCQQVLADFIGGLNDFHAGVTFFAIESAYLPYTVQKSSDGRFYFVDIMTFSSEIRVGDELLEVDGAPVQDVLATLYGSNHKGTAAEESAALRTLFSRMASLGHKVPSGRTTLKIRRPFGTTREVRVKWRYVPEGVGDLATIAPSIRAPQLQKSMRSFFPKKDDAFHRSSSLFYSPMVPHFWAELRNHYATSGLKSGYNIGSTDGFLPVIGPVIWESEGLFRAYISSVTDGDGKSHKVGFLRIPTYSWQDMEDFDPSGPPPWEEFAKIIQVFSSNTEALIIDQTNNPGGSVLYLYALLSMLTDRPLELPKHRMILTQDEVVDALDWLTLLENVDTNVESRLALGDNMEGYTVDLQVAEYLKSFGRQVLNCWSKGDIELSTPIPLFGFEKIHPHPRVQYSKPICVLINEQDFSCADFFPVVLKDNDRALIVGTRTAGAGGFVFNVQFPNRTGIKTCSLTGSLAVREHGAFIENIGVEPHIDLPFTANDIRYKGYSEYLDKVKKLVCQLINNDGTIILAEDGSFHHHHHH	soluble
MTNQLPKISEAELEIMKVLWLKSPQTANEIIEELEDPMDWKPKTIRTLINRLVQKEAVSYHQDKGRMYAYYPLVSQDNYLQVETKSLLKRFCGAAFKPLLVNFLKEEKLSSEDINELKRLLDEKTEENKRKD	not soluble
MVRVDQNLFNEVMYLLDELSQDITVPKNVRKVAQDSKAKLSQENESLDLRCATVLSMLDEMANDPNVPAHGRTDLYTIISKLEALSKS	not soluble
QPKPEVPQCVADWIEECKEEDLTLKGLFSNSDMPAKIFDWIFGSDENCRLMAEAWINGYTVEKEKLYTVDLPNGQPLVRGINTLYFSQNLATENVKLTESEIRKDFEWAWQFAEEVTE	not soluble
